{
  "source": "the DeepSol protein solubility set",
  "data": [
    {"test": "soluble on expression in E. coli; label from the status in PepcDB or PDB records", "values": [
      {"sequence": "MIPKVIHYCWFGGNPLPDNLKKYIKTWREQCPDYEIIEWNEHNYDVSKNVFMREAYTKKNFAYVSDYARLDIIYTYGGFYLDTDVELLKSLDPLRIHECFLAREISCDVNTGLIIGAVKGHHFLKSNMSIYDKSDLTSLNKTCVEVTTNLLINRGLKNKNIIQKIDDITIYPRNYFNPKNLLTGKVDCLTSVTYSIHHYEGSWKSSSFISDSLKIRVRLIIDFLFGYGTYRMLLRFLKLKKLEHHHHHH", "soluble on expression in E. coli": "soluble"},
      {"sequence": "MIPPSLPAELKAALEQLLQGTQRADAATRAERISLNYRGGGTSAPITSEADALAYAGARMPATYAAVIACLNALTAIRPDFAPATLLDVGAGPGTASWAAAQAFESLQGFTLLDANPALRNLALRLTEARRLSAIDYRLGDAGKALADAPEVTLVIASYLINELGDAARASFADALWRKTSDTLLVVEPGTPAGYQRILQLRDRLIAQGAHVIAPCPHENACPLAAPDWCHFVQRLPRSKLHLQLKSADVPFEDEKFSYVALTRVPLPQRPARVLTQPEQTKAAITAKLCTPAGKLKLAVAARRDKPAYARFRRLDWGDALEAQADLEHHHHHH", "soluble on expression in E. coli": "not soluble"},
      {"sequence": "MIQAAKIKQLKSLDSDLEKAIGRISGGLYIITAQKGEVKGAMLASWVSQASFNPPGFTVAVAKDRAIESLMQVGDRFVLNILEEGNYQILMKHFLKRFPPGADRFAGVKTQTASNGSPILTDALAYLECEVASRMECSDHWIVYSQVTNGRVAKAEGLTAVHHRKVGNYYLEHHHHHH", "soluble on expression in E. coli": "soluble"},
      {"sequence": "MIQAVFERAEDGELRSAEITGHAESGEYGLDVVCASVSTLAINFINSIEKFAGYEPILELNEDEGGYLMVEIPKDLPSHQREMTQLFFESFFLGMANLSENYSEFVQTRVITEN", "soluble on expression in E. coli": "soluble"},
      {"sequence": "MIQRLLNEENLLIGISELSEIAEVSPRQLRYWEEKGYISSIAKDANGPRKYRLHTVVKVHWIKRFLDEGYTLQSAVEKAEEQHRNVGMTKKIFSQMFHGISEVCPNYVAIDLGDFDEEQKLYVVFNETTEVSEYLLIPKDADVSDELKKRK", "soluble on expression in E. coli": "not soluble"},
      {"sequence": "MIRILHTADWHLGQTFFGYDRAEEHKAFLDWLAEEIRQNEIDALVIAGDVFDVSNPSAASQRIYYEFIYRVTAENPKLQIVIVAGNHDSAARLEAPLPLLQAMRTEVRGVVRKLEGGEIDYDHLTIELKNREGEVEVLCMAVPFLRQGDYPVVETEGNPYMEGVRELYARLLQRLWARRKTNQAILAVGHLQATGSEIAEKDYSERTVIGGLECVSPDTFSEKIAYTALGHIHKAQRVSGRENVRYAGSPIPMSFAEKHYHHGVVMVILDEGCAVDIRRIECPQSIPLISVPGGEAASPEKIIEILRDLPEVDGEAPYLEVKVLLEEPEPMLRQEIEEALAGKKYRLARIVSAYRQEERVEKEVDGWKKGLQEMSPLQIAQSAFEKVYQAEMPADLTDLFQEAYISATRKEEEEGE", "soluble on expression in E. coli": "not soluble"},
      {"sequence": "MIRLNVFVRVNETNREKAIEAAKELTACSLKEEGCIAYDTFESSTRRDVFMICETWQNAEVLAAHEKTAHFAQYVGIIQELAEMKLEKFEF", "soluble on expression in E. coli": "soluble"},
      {"sequence": "MISHLFQTYGRRTVEFVKGNGTKVIDNNGKQYLDFTSGIGVCNLGHCHPTVMKAVQEQLNDIWHISNLFTNSLQEEVASLLTENIALDYVFFCNSGAEANEAALKLARKHTGKSLVVTCEQSFHGRTFGTMSATGQNKVKEGFGPLLPSFLHTPFNDIKALKEVMNEEVAAVMVEVVQGEGGVIPADLSFLKEIETLCKKFGSLFIIDEVQTGIGRTGTLFAYEQMGIDPHIVTTAKALGNGIPVGAMIGRKELGTSFTAGSHGSTFGGNYVAMAAAKEVLQVSKRLSFLKEVQEKGEYVLQKLQEELQHVECIQNIRGKGLMVGIECTHEVASFIEQLEKEGLLVLQAGPNVIRLLPPLIVTNEELEQAVYMIKKVVCTKNVSII", "soluble on expression in E. coli": "not soluble"},
      {"sequence": "MISILYDEIVSCSRCERLIEYRKNFKIPPRFKDWNYWNKPVPGFGDEKAKILIVGLAPALHGGNRTGRVFTGDESGKWVIKGLYALGLSNKEEGKTREDGLEVKEVYLTNTVKCAPPKNKPTREEISNCSRFLIEEIKSLRIKVILALGRIAFDTILSLYGIKSKFYHGVVIKLPDDKILIGSYHPSAQNTKTGRLKWEDWIKILKLAYEIANNPQY", "soluble on expression in E. coli": "soluble"},
      {"sequence": "MISRTQRLLSLSTAMLLATTAAAVAEPSEELIAAAKKEGTLTTIALPHNWCGYGDVIAGFKAKYGIEVNELNPDAGSGDEIEAIKANKGNTGPQAPDVIDVGLSFGPSAKAEGLIQPYKVSTWDTIPDTAKDPEGYWYGDYYGVLSFVVNTDIVKDVPKDWADLKKSDYANSVALAGDPRASNQAVQAVYAAGLAAGETDAAKAGEAGLAFFAEVNKAGNFVPVIGKSASLAQGSTPIIIAWDYNGLSWRDSLNGNPPVEVVVPASGVVAGVYVQAISAFAPHPNAAKLWMEYLYSDEGQLGWLKGYCHPIRFNDLVKNGKVPKEMLDKLPPAESYEKAVFPTLDEQAKGKEAITTKWDSVVGASVQ", "soluble on expression in E. coli": "not soluble"},
      {"sequence": "MISSIRLDLFRTKVFVMPLKFPLSICLLGTFLVTSAQAQEAVKGVVELFTSQGCASCPPADEALRKMIQKGDVVGLSYHVDYWNYLGWTDSLASKENTERQYGYMRALGRNGVYTPQAILNGRDHVKGADVRGIYDRLDAFKREGQGLNVPVSSKFAGDEVEIDIGAGNGKADVVVAYFTREQTVDVQKGENQGKKMSYWHSVYDVQTVGMWDGSPMTVKLPASVVAKVKKGGCAVLLQTANASGDPAAIVGASILLGNETQLEHHHHHH", "soluble on expression in E. coli": "soluble"},
      {"sequence": "MISVTDLRPGTKVKMDGGLWECVEYQHQKLGRGGAKVVAKFKNLETGATVERTFNSGEKLEDIYVETRELQYLYPEGEEMVFMDLETYEQFAVPRSRVVGAEFFKEGMTALGDMYEGQPIKVTPPTVVELKVVDTPPGVRGDTVSGGSKPATLETGAVVQVPLFVEPGEVIKVDTRTGEYVGRA", "soluble on expression in E. coli": "soluble"},
      {"sequence": "MITAERYHDISMGHRVVGHDHKCRHLHGHNYRIHFICSAPALDSIGRVVDFGVIKELLCQWLEDHWDHKMMLWEQDPLLPALRATVPDDLVAVPFNPTAENMAVYLTEVVGPMQLAGTGVTLIGCRVDETRKCSASYTL", "soluble on expression in E. coli": "not soluble"},
      {"sequence": "MITTFETILDKIKAHQTIIIHRHQNPDPDALGSQAGLKEIIAQNFPDKKVLMTGFDEPSLAWISQMDQVTDKDYKEALVIITDTANRPRIDDERYTLGKCLIKIDHHPNDDVYGDFYYVDTSASSASEIIADFAFSQNLTLSDKAAKLLYTGIVGDTGRFLYASTTSKTLSIASQLRHFEFDFAAISRQMDSFPLKIAKLQSYVFEHLTIDESGAAYVLVSQETLKHFDVTLAESSAIVCAPGKIDNVQAWAIFVELTDGNYRVRMRSKEKIINGIAKRHGGGGHPLASGANSANLEENQAIFRELIAVCQEILEHHHHHH", "soluble on expression in E. coli": "soluble"},
      {"sequence": "MITVVIASRLREDRLDYLTAMHASLTRQSVPWEAVIALDGASPDRLPRQLAQDPRVDTLVLPRPVGAACARNLALTQVRTRYVNWADDDDEFTDDAMSVRLETLESTGVGWCAGWSEDQFRDGSTRLWRCPTPPGRHEAGDVWTFWKSPADTIPIGPTTILARTDLVRAAPMGGLVQGEDYCAALGVTALAPGILLPLPVYRYRKWGGQMTAQDGYDQLETAAREHAWAYGRSLRAVLRGGEDLVHVLEHHHHHH", "soluble on expression in E. coli": "not soluble"},
      {"sequence": "MITYYVRQLKTFSIMSLTLSNVILHKLVKNEQDELEVCLRNQTLENEEFTEALVSELHRVFNSKAGKGFGVFKTESEFGHWLSSVRKNETPFLEFSNNSAEKLKSELIKYPFAEEGILVIAEYQSLATEYLFVAVLPSNESMKVTEQLDISATDYLDIAKMDIAARIDLSTWETDSDSNRYLTFIKGRVGRKVSDFFLDFLQADVGMDTKVQNQVLMQAVEDFCADERLDQEEKQPYRKQVYDYCNGQLQAGEELTVKELASELPTSESGSNFYQFAEEQGYELEESFPVDRTALRKLTKFVGAGGGLSLNFDAMLLGERVFYDPETDTLTIKGTPPNLKDQLEHHHHHH", "soluble on expression in E. coli": "not soluble"},
      {"sequence": "MIVAFENNVVCSDEKVRDYLLAHHADLKEDQDEDALCLVRLHKEEDIDGTDRVDLAGWREISRELYWTGEQMECNYSIIRFSRKTTSLQMSVVLSTCNQLEWLEKVLWGYEAQDTKNFELIIADDGSRKETYDMLQRITPQLSFQVKHVWHEDKGFRKCDILNKGILAAQADYLLFSDGDCIPRKDFVSTHLCLRRKGRFLSGGYHKLSMDLSKDITKDDILSGRCFDLQWMRGKGMPASFKNNKLTATGFKRWALNTFTPTKASWNGHNASGWLSDILAVNGFDERMQYGGQDREFGERLENYGIHGMQIRYSTVCLHLDHARGYKTKDSIQKNRNIRKHTRGAKVQWASLGIVKDELRGQSVKVNSYYDRYTREEEKLTSYKEKGGFYRHIYSLPCRWRRAKYHDKVVRAYQQDTDAPALSNHSGVIVSLTTFPPRISQLHLMLKSILWQTCPPEKIIVWLSEQEFPGRLNDLPEELKRLMAKGIAFRFVSENFRSHKKYHYVFREYPDSKVITVDDDLIYPRNTVERLLSLSYQYPDTVCGNVIRKIHMDGNSFSVYRKWTKVFTMPVNSSLQNVAIGCGGIYYPPHWYGEELFDWKIISEHCPSADDLWLKANELKRRVKVTGGGEFYPRPIELPQTQNNSLQKKNNGKTNLNDKQWKSLNELWKLDELYCINGK", "soluble on expression in E. coli": "not soluble"},
      {"sequence": "MIVFSDLDRSIIYSNKFLNADSKYANIEIYREKEISYISLDTINLIKQIQYYGMFIPTTTRTVEQFKRIEFNKYGIYFPWSITSNGGVILKDNEILKSWSEKIDKLKSNYEPIESMIHKFKDYLNVDGITNFKVAEDTFFYIVVDLSRFNLDSIKEYTNILESKNWKFYVSGRKIYFIPKEISKENAIKYLTKELGIEYFYAVGDSIMDYGMLNISNKSYVLKHGDINKNEIENSFISSSFNGMSGTEEILSNILDENCLLNI", "soluble on expression in E. coli": "not soluble"},
      {"sequence": "MIVLGIESSCDETGVGIIDLADDGTMTIVGDAVASSMEQHARFGGVVPEIASRAHLESMIPVMKEALAQAGVERPDAVAATVGPGLAGALLVGASAAKAYAAAWGVPFYGVNHLGGHVAVANLEGEELPHSIALLVSGGHTQILEVQAVGKPMRELGSTLDDAAGEAYDKVARLLGLGYPGGPVVDKLAARGNRKAIRFPRGLSRADDLRGEHRYDFSFSGVKTSVARYVESAEREGRVISVEDVCASFQEAVVDVLTSKAIMACKDTGASVLLLGGGVAANSRLRELAAARCQSASIELRVPSFKLCTDNGVMIAAVASQLIHEGAQPSGLSVGTDTSLEVEIPLVHSL", "soluble on expression in E. coli": "not soluble"},
      {"sequence": "MIVSILGAGAMGSALSVPLVDNGNEVRIWGTEFDTEILKSISAGREHPRLGVKLNGVEIFWPEQLEKCLENAEVVLLGVSTDGVLPVMSRILPYLKDQYIVLISKGLIDFDNSVLTVPEAVWRLKHDLRERTVAITGPAIAREVAKRMPTTVVFSSPSESSANKMKEIFETEYFGVEVTTDIIGTEITSALKNVYSIAIAWIRGYESRKNVEMSNAKGVIATRAINEMAELIEILGGDRETAFGLSGFGDLIATFRGGRNGMLGELLGKGLSIDEAMEELERRGVGVVEGYKTAEKAYRLSSKINADTKLLDSIYRVLYEGLKVEEVLFELATFK", "soluble on expression in E. coli": "soluble"},
      {"sequence": "MIVSSLRGGLGNQMFIYAMVKAMALRNNVPFAFNLTTDFANDEVYKRKLLLSYFALDLPENKKLTFDFSYGNYYRRLSRNLGCHILHPSYRYICEERPPHFESRLISSKITNAFLEGYWQSEKYFLDYKQEIKEDFVIQKKLEYTSYLELEEIKLLDKNAIMIGVRRYQESDVAPGGVLEDDYYKCAMDIMASKVTSPVFFCFSQDLEWVEKHLAGKYPVRLISKKEDDSGTIDDMFLMMHFRNYIISNSSFYWWGAWLSKYDDKLVIAPGNFINKDSVPESWFKLNVRMAGDPLEHHHHHH", "soluble on expression in E. coli": "not soluble"}
    ]}
  ]
}
